The record followed here is publication PMC10201424, “Biochemical characterisation of Mer3 helicase interactions and the protection of meiotic recombination intermediates” (Nucleic Acids Research, 2022).

Where “and” joins values, the source holds several entries; their conditions need not be identical. Equal values may be shown once.

Sequences and labels used below:
B1: His-Top3 (enzyme, S. cerevisiae, UniProt P13099 1-656, looked up)
chain: MKVLCVAEKNSIAKAVSQILGGGRSTSRDSGYMYVKNYDFMFSGFPFARNGANCEVTMTSVAGHLTGIDFSHDSHGWGKCAIQELFDAPLNEIMNNNQKKIASNIKREARNADYLMIWTDCDREGEYIGWEIWQEAKRGNRLIQNDQVYRAVFSHLERQHILNAARNPSRLDMKSVHAVGTRIEIDLRAGVTFTRLLTETLRNKLRNQATMTKDGAKHRGGNKNDSQVVSYGTCQFPTLGFVVDRFERIRNFVPEEFWYIQLVVENKDNGGTTTFQWDRGHLFDRLSVLTFYETCIETAGNVAQVVDLKSKPTTKYRPLPLTTVELQKNCARYLRLNAKQSLDAAEKLYQKGFISYPRTETDTFPHAMDLKSLVEKQAQLDQLAAGGRTAWASYAASLLQPENTSNNNKFKFPRSGSHDDKAHPPIHPIVSLGPEANVSPVERRVYEYVARHFLACCSEDAKGQSMTLVLDWAVERFSASGLVVLERNFLDVYPWARWETTKQLPRLEMNALVDIAKAEMKAGTTAPPKPMTESELILLMDTNGIGTDATIAEHIDKIQVRNYVRSEKVGKETYLQPTTLGVSLVHGFEAIGLEDSFAKPFQRREMEQDLKKICEGHASKTDVVKDIVEKYRKYWHKTNACKNTLLQVYDRVKASM
notes: Top3 (type IA topoisomerase), S. cerevisiae, from SK1 strain genomic DNA; also called His-tagged Top3; source: Hi5 insect cells, purified (TALON, heparin, ResourceS, SEC); not shown: His6, N-terminal, kept
B2: Top3, untagged (chain of the Top3/Rmi1 complex) (enzyme, S. cerevisiae, UniProt P13099 1-656, looked up)
chain: B1 chain
notes: Top3 (type IA topoisomerase), S. cerevisiae, from SK1 strain genomic DNA; untagged; Same chain as in m10 and m11; source: Hi5 insect cells (co-expressed with GST-Rmi1), purified with Rmi1
B3: Top3/Rmi1 complex (as used in MST and XL-MS) (complex, S. cerevisiae)
chain 1: B1 chain
chain 2: MSFSSILSQDITDDITPPAYSATLGSREQIVFRAYQNEPWLAGTASNLILDKKLVIVDRELLFQVLMVENITKSKLTQIDDIKTKLDPKKQKVDRLRSGAQGNGAKKYEVITQVDMEDDGNVADNNCAKENNSNNNSSAAKNKAVFKLTLQSKSGDVFFAINSTPISWSSCMLGSKIVILPGTVFNRGVFILKDSQVIFLGGINRVWNENRDQKFCDYLESKLQRDKQLVNGGSKKRKAND
notes: Top3 (type IA topoisomerase), S. cerevisiae, from SK1 strain genomic DNA; untagged; Rmi1, S. cerevisiae, from SK1 strain genomic DNA; The methods describe a GST-tagged and an untagged (3C protease cleaved) preparation; source: Hi5 insect cells (co-expressed from pBIG1a), purified
B4: Rmi1 (as used in MST and XL-MS) (natural protein, S. cerevisiae, UniProt Q02685 1-241, looked up)
chain: B3 chain 2
notes: Rmi1, S. cerevisiae, from SK1 strain genomic DNA; The methods describe GST-Rmi1 and untagged (3C protease cleaved) Rmi1; also called Rmi1 alone; source: Hi5 insect cells, purified
B5: MBP-Mlh2 (chain of the MBP-Mlh1/MBP-Mlh2 complex) (natural protein, S. cerevisiae, UniProt Q07980 1-695, looked up)
chain: MTIHQLSPESQWKIVSSSFIYGPVAAVRELLDNSIDSGAKKVFIDVDSTTGGCEYISVKDDGSGVDIIDRPSMCLEYTTSKMSSLGDISILTTLGFRGEALFLLSNLCNQKGSMQVETKTADDVIGEKWLVDSKGGITNGKRYKVSCPVGTTVILRKLLGGLRARYLEISSRPRKTFDELIYLINHYSLIHRNIRFYFSLVSLQKNGAIERKQMQETLDPKISRARSLSLLARLKKPVPLNFIVEENFVIDEKINLDLILPRMVPESDVINIKRRFKFLSVNERALSLNLETGKTISKLLSSIYRDFSLLDPMVWFINLNCDTKLLDVNIEPEKNDVMIKSFEVIFKKIENKLKLLLEERIGIETNMLGDKHVQPSINEKTSPALVIPTPDAENEISKGCGAVSGKDKTDIPQKNSDLIVPTFYDEANLENTTIVAATPSPTKFSEDKALDEQTQLTISSYRSSSSGSMASEDSTNWRHNFQQELSENSEVAGAGSSTLPSSLTYNYIETIPENEDLELSKDASISNPFMITKIRNVNKKLSENLLEAKRTSCGDANKRGMPNERQLSNTEKKELIKLQQTYGKRNNTVDMTIPRNSKKKVTDNYIKKASCMHKTRPKLMHFSEYTNNYVYTLKNEKIVKHDSDNFAKETLWLRSRDDATSPSSSLLQALRAHVKKPGHIEATTNEWCLFTPDSP
notes: Mlh2, S. cerevisiae, from SK1 strain genomic DNA; Same chain as in m6; source: Hi5 insect cells (co-expressed with MBP-Mlh1), purified (MBP-trap, heparin, SEC); not shown: His6, N-terminal, kept; MBP, N-terminal, kept

In experiment [1] the target is Mer3-Strep (full-length S. cerevisiae Mer3 with C-terminal 2xStrep-II tag) (S. cerevisiae) (UniProt P51979). Put plainly: SEC-MALS; full-length Mer3, 10 μM at injection, Superose 6 5/150; 30 mM HEPES pH 6.8, 300 mM NaCl, 1 mM MgCl2, 5 μM ZnCl2, 1 mM TCEP. For orientation: In gel filtration, larger molecules generally elute earlier.
Experiment [2] concerns the target T1, Mer3-Strep (full-length S. cerevisiae Mer3 with C-terminal 2xStrep-II tag) (S. cerevisiae, UniProt P51979 1-1187, phosphorylated in insect cells; high-confidence sites S17, S80, T100, S398, S958, T1092).
T1 sequence (looked up): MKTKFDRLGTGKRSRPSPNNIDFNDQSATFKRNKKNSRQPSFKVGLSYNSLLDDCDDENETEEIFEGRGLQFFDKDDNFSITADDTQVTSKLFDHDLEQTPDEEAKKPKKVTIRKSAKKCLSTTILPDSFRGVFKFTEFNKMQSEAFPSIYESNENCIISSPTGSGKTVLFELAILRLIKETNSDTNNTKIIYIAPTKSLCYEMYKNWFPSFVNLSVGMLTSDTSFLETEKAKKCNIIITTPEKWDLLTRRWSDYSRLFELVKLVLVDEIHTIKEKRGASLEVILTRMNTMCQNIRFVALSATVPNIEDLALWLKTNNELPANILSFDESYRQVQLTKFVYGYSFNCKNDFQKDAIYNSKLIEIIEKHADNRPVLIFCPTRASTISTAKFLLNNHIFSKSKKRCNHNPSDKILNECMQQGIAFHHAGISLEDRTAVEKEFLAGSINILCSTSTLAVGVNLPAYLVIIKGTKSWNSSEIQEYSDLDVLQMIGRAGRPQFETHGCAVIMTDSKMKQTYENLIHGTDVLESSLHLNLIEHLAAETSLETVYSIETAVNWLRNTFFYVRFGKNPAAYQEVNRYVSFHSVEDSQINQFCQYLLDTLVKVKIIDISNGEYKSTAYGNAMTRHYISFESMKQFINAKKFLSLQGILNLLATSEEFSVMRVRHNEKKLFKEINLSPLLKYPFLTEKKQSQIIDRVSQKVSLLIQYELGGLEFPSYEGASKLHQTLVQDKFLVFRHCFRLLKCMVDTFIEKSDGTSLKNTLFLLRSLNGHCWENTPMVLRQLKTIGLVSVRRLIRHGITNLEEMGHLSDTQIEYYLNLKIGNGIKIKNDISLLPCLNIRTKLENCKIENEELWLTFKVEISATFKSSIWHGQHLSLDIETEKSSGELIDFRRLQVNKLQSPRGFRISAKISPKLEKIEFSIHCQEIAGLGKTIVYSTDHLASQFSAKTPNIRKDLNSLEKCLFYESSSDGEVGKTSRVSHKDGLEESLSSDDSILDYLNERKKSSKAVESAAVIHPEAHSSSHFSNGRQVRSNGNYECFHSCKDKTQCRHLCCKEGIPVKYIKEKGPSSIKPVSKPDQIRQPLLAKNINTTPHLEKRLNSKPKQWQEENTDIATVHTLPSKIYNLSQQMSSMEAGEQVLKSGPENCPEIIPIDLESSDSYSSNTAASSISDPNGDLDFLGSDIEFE
Nature of the experiment: pull-down; Mer3-Strep (0.7 μM) held by anti-Strep antibody and protein G beads (the legend says StrepTactin pulldown), His-Top3 1.3 μM; 25 mM HEPES pH 7.5, 5% glycerol, 50 mM NaCl, 1 mM TCEP, 0.1% Tween-20; western blot. As to conditions: both partners purified.

Experiment [3] has as its target T1, Mer3-Strep (full-length S. cerevisiae …). Nature of the experiment: cross-linking; XL-MS with DSBU, proteins 3 μM, 1 h at 25°C; 30 mM HEPES 6.8, 150 mM NaCl, 5% glycerol, 1 mM MgCl2, 1 mM TCEP; samples: Mer3, Mlh1/Mlh2, Mer3/Mlh1/Mlh2, Top3/Rmi1, Mer3/Top3/Rmi1. As to conditions: both partners purified.
Experiment [4] shares this target. Nature of the experiment: MST; 45 nM RED-NHS labelled Mer3, partner titrated; 50 mM Tris–HCl pH 7.4, 150 mM NaCl, 10 mM MgCl2, 0.05% Tween-20; 25°C; triplicates. As to conditions: both partners purified.
Experiment [5] has as its target B2. Put plainly: cross-linking; XL-MS with DSBU, proteins 3 μM, 1 h at 25°C; 30 mM HEPES 6.8, 150 mM NaCl, 5% glycerol, 1 mM MgCl2, 1 mM TCEP; samples: Mer3, Mlh1/Mlh2, Mer3/Mlh1/Mlh2, Top3/Rmi1, Mer3/Top3/Rmi1. As to conditions: both partners purified.

For orientation: stoichiometry N means a count of units in the complex or per binding partner. “Mer3-Strep (full-length S. cerevisiae Mer3 with C-terminal 2xStrep-II tag) (from UniProt P51979 1-1187) (enzyme)” yielded a stoichiometry N in experiment [1] of 2.

Regarding B1, the binding result in experiment [2] is recorded as “binds”.

Consider B2, for which, in experiment [3], the binding result is “binds”.

For orientation: Kd means the concentration at which binding is half-saturated. For the molecule B3, the dissociation constant (Kd) in experiment [4] is 844 ± 148 nM.

Turning to B4, the Kd in experiment [4] is 1990 nM and 1980 nM. Also, in experiment [5], the binding result was “binds”.

With B5, the binding result in experiment [3] is recorded as “binds”.
